# Measurements as given in PMC11189427 (Scientific Reports, 2024).
# Values joined by “and” are separate entries in the source; they are usually repeats but may differ in a detail not shown here. Identical values can stand only once.
# Target: the molecule itself
# Assay: cryo-EM structure
protein,measurement,value
"Hendra henipavirus nucleoprotein (natural protein, copies: 28) MSDIFDEAASFRSYQSKLGRDGRASAATATLTTKIRIFVPATNSPELRWELTLFALDVIRSPSAAESMKIGAAFTLISMYSERPGALIRSLLNDPDIEAVIIDVGSMLNGIPVMERRGDKAQEEMEGLMRILKTARESSKGKTPFVDSRAYGLRITDMSTLVSAVITIEAQIWILIAKAVTAPDTAEESETRRWAKYVQQKRVNPFFALTQQWLTEMRNLLSQSLSVRKFMVEILMEVKKGGSAKGRAVEIISDIGNYVEETGMAGFFATIRFGLETRYPALALNEFQSDLNTIKGLMLLYREIGPRAPYMVLLEESIQTKFAPGGYPLLWSFAMGVATTIDRSMGALNINRGYLEPMYFRLGQKSARHHAGGIDQNMANKLGLNSDQVAELAAAVQETSVGRQDNNMQAREAKFAAGGVLVGGGEQDIDEEEEPIEHSGRQSVTFKREMSMSSLADSVPSSSVSTSGGTRLTNSLLNLRSRLAAKAIKESTAQSSSERNPPNNRPQADSGRKDDQEPKPAQNDLDFVRADV",stoichiometry N,14 protomers per ring and 28 protomers per double-ring assembly
